Test results as given in paper PMC3115021, “Dynamics of Cdk1 Substrate Specificity during the Cell Cycle” (Molecular Cell, 2011).

B1: BOP3: purified yeast protein tested as Cdk1 substrate (protein, UniProt P53958 1-396, looked up)
Protein BOP3: MSTFNSYSQPKESNDNSHNNVNKSKSLLDIIFGTNVSEWAFSENALMKAMDLKIEQEKTKQQYYKLENLNRSIELFKLASSSGLPINQIHKLFNTDHGVPASSPMKAGGNQPHNNTEGTQSSENLPRLNGSMKSLKPLNMNTVSPTPMSRQPSPYKFPASSSTGGISHSTVTNVQRRANSPARIGASAVAALNDNISIKEEDVARRIPSGTKSQESPLNKKPTSLHSRNLSLPIGKFTNPNIPSTMTSILSFNRDQQQPLSQPLPPPPQQQQDLHTHNLHTIPRKPGMVQKKHRRARSTSSFGVIDLSIIDEAKEKQVQRSPSPIHSNVSVALTSHDKPIESNMKEQPNMLQSVREGRQVHDDLDDRTCSESSSRNESPVRTITKDNSVGKILNST
B2: FIR1: purified yeast protein tested as Cdk1 substrate (protein, UniProt P40020 1-876, looked up)
Factor interacting with REF2: MSLPVTPVKSKVCSTLSIQHEMDHDQCRDVLCPRENLLAINRTNNIESVAIPRQRSSKNKKPHEHTQSQVRFSIPDPNEISQDSPLKIVFPKSGNETERRMSTSSLLMNSHGHLVDMHSKILVDVPKEVWKFHHNRRKKCESRHRKTRSDVRSNTSSSGKEPNHSRSKSLQSIIVDTMNTYRATEVETSINENTSNISQVSPLNLSFDRPPPLTPEKNLYLTPESPLNRYHLPVPLEISLPPYLSPQNKDKKRSSLVYDGDGYSQFQEGNTSSSTESSLEQPSSSYSDEDDSIPYAHHDVSFELNNADADKLLGIDENANVNLKIQRRNLKNPQHIKSKTDRECEEKNTEKNVSLKILSTPNKLIDIPDLEHMKSPPSTGLNGTLKFFQQFEPSEEPTSPTRQVNPESLDKLDMSFKFPSSTTNNNVDKVHENRNSGDTNNEDFLKVDTSPVNQSFESRRQMLIDLQKSPTNNNPRIHKHRRSRSVHNIDDISLNFEATSTPPAPTSAPSIPVEHSNPCTSIEIPKRSPLRFTSSPKTSDIPPEAQSPKNGSFLQEISVPSIQIIPDESISHTREPSPSLIECPEDENEAFSTEVADHSIAIISETKSVPSIEPFKPLSSFNSFGQEIQNKEPTPLNQTPTDLIGKQRNCVNPHSIPFSVLSSNSQSSQSGSSKSSYNSEFSSNTAITDTTSQPSVTINRSTLEHNFIEEKRSIKNLGHGPPSQKNNYSFPRNKNTPSNRHDLDFNTIYEKRDGKMVEVILLDEDEDVGLKNNDISRTRVCHAQKAKNEQQKKRLSHCNEILGMCDKTADDAKRIIYQLVNEKHKFSEKGQQTKPKKSRVLPPLPFPLYDEKGNSLIPNKYQSSIHNDIPSHRKLK

Assays:
Assay in all cases: Quantitative phosphorylation assay of T33-Sic1ΔC constructs and recombinant substrates
Format in all cases: biochemical
Details in all cases: Table S2; purified protein substrate; relative values, not divided by [S]
[1] = molecular target: T1, Clb2-Cdk1 (Saccharomyces cerevisiae, UniProt P00546+P24869)
T1 construct: We purified the four cyclin-Cdk1 complexes from yeast; made in house; host or cells: S. cerevisiae strain DOM0077 (gal-CLB2-TAP, sic1 deleted); Cks1 from bacteria
T1 sequence (P00546 2-298 limits assumed): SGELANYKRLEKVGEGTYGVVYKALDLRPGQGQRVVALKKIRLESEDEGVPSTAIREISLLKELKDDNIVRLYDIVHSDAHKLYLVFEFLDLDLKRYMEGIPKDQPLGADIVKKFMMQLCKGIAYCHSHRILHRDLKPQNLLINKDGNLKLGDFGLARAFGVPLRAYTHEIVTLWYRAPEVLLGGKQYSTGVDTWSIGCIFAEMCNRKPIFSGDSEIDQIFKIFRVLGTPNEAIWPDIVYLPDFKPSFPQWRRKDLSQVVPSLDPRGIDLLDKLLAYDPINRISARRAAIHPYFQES
T1 sequence (P24869 2-491 partner limits assumed): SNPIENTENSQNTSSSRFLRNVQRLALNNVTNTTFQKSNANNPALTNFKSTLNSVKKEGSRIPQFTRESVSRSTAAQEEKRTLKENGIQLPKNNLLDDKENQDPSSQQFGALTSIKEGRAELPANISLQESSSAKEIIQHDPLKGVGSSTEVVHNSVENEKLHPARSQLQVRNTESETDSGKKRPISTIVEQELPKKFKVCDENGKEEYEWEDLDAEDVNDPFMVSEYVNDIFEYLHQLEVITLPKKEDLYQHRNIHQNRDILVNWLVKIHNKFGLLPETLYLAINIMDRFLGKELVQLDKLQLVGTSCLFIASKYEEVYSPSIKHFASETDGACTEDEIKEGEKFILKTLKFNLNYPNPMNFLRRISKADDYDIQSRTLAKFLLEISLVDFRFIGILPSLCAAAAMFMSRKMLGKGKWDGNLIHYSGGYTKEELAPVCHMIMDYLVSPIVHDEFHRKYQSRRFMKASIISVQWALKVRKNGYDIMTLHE
T1 sequence (P20486 whole entry partner): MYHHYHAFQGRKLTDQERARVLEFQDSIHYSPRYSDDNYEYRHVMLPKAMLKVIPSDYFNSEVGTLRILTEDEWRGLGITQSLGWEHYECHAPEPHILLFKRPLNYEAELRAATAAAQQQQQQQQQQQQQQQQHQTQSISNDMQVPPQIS
Protocol: (§1) For the quantitative phosphorylation assays of T33-Sic1ΔC constructs and recombinant substrates, substrate concentrations were kept in the range of 0.5–2 μM (in the linear [S] versus v0 range, several-fold below the estimated KM value), and initial velocity conditions were defined as an initial substrate turnover of up to 10% of the total turnover. For the steady-state peptide kinetics of the Histone peptide PKTPKKAKKL, a similar assay composition was used as for protein substrates, and phosphocellulose paper was used for the quantification of the phosphorylated substrate. […]
(§2) similar substrate specificity as the Cln2-Cdk1 version purified using a TAP-tag. N-terminally 6His-tagged recombinant T33-Sic1ΔC constructs and substrates were cloned into the pET28a vector and purified by standard cobalt affinity chromatography and elution with 200 mM imidazole. 6His-Fin1 was purified as described previously (Woodbury and Morgan, 2007). Substrates cloned into the pGEX-4T-1 were purified on glutathione agarose columns using 5 mM reduced glutathione for elution. Cks1 was purified as described previously (Reynard et al., 2000). The optimal working concentration for purified Cks1 was taken as 500 nM based on optimization performed for cyclin-Cdk1 preparations and T33-Sic1ΔC as a substrate.
(§3) For the quantitative phosphorylation assays of T33-Sic1ΔC constructs and recombinant substrates, substrate concentrations were kept in the range of 0.5-2 μM (in the linear [S] vs v0 range, several-fold below the estimated KM value), and the initial velocity conditions were defined as an initial substrate turnover ranging up to 10% of the total turnover. The latter was estimated by a long-term incubation with excess amounts of cyclin-Cdk1 and 32P-γ-ATP in the standard reaction mixture given below. About 1-10 nM of purified kinase complex was used, reaction aliquots were taken at two or more time points, and the reaction was stopped by SDS-PAGE sample buffer. The relative kcat/KM values for the substrates were calculated as the ratio of v0/[S], which was determined from at least two independent experiments. The basal composition of the assay mixture contained 50 mM Hepes, pH 7.4, 100 mM NaCl, 0.1% NP-40, 20 mM imidazole, 0.1 mg/ml 2HA peptide, 2% glycerol, 2 mM EGTA, 0.2 mg/ml BSA, […], and 500 μM ATP (with added 32P-γ-ATP (Perkin Elmer)).
(§4) About 1-10 nM of purified kinase complex was used, reaction aliquots were taken at two or more time points, and the reaction was stopped by SDS-PAGE sample buffer. For the steady-state peptide kinetics of the Histone peptide PKTPKKAKKL, a similar assay composition was used as for protein substrates and the standard phosphocellulose method was applied for the quantification of the phosphorylated substrate (Loog and Morgan, 2005). Synthetic peptides as competitor agents were used in 4 mM final concentrations. […]

[2] = molecular target: T2, Clb3-Cdk1 (Saccharomyces cerevisiae, UniProt P00546+P24870)
T2 construct: We purified the four cyclin-Cdk1 complexes from yeast; made in house; host or cells: S. cerevisiae strain DOM0957 (gal-CLB3-TAP, sic1 deleted); Cks1 from bacteria
T2 sequence (P00546 2-298 limits assumed): as the sequence (P00546 2-298 limits assumed) above
T2 sequence (P24870 whole entry partner): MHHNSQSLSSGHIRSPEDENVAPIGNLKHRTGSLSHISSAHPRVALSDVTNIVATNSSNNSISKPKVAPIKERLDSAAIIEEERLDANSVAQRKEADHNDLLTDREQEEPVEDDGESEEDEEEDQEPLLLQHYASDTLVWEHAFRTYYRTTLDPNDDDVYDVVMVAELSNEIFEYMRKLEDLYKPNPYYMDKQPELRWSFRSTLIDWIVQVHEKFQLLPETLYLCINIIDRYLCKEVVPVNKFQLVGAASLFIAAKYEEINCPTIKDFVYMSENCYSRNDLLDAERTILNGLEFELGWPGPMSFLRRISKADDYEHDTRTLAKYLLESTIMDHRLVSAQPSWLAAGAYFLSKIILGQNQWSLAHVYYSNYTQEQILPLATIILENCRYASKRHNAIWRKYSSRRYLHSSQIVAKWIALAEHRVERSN
T2 sequence (P20486 whole entry partner): as the sequence (P20486 whole entry partner) above
Protocol: as §1, §2, §3, §4

[3] = molecular target: T3, Clb5-Cdk1 (Saccharomyces cerevisiae, UniProt P00546+P30283)
T3 construct: We purified the four cyclin-Cdk1 complexes from yeast; made in house; host or cells: S. cerevisiae strain DOM0076 (gal-CLB5-TAP, sic1 deleted); Cks1 from bacteria
T3 sequence (P00546 2-298 limits assumed): as the sequence (P00546 2-298 limits assumed) above
T3 sequence (P30283 whole entry partner): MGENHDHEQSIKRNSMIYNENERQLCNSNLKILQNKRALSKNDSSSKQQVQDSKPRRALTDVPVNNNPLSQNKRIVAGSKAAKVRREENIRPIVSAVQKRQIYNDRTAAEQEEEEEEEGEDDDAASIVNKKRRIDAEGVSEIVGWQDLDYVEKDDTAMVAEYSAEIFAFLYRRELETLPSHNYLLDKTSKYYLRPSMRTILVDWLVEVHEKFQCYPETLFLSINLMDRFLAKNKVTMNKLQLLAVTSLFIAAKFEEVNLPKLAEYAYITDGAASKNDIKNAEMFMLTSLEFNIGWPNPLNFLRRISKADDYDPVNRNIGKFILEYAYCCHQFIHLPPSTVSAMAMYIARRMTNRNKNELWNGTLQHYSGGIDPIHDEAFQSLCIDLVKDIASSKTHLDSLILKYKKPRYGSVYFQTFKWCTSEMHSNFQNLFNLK
T3 sequence (P20486 whole entry partner): as the sequence (P20486 whole entry partner) above
Protocol: as §1, §2, §3, §4

[4] = molecular target: T4, Cln2-Cdk1 (Saccharomyces cerevisiae, UniProt P00546+P20438)
T4 construct: We purified the four cyclin-Cdk1 complexes from yeast; made in house; host or cells: S. cerevisiae strain DMY305 (galactose-induced); Cks1 from bacteria
T4 sequence (P00546 2-298 limits assumed): as the sequence (P00546 2-298 limits assumed) above
T4 sequence (P20438 whole entry partner): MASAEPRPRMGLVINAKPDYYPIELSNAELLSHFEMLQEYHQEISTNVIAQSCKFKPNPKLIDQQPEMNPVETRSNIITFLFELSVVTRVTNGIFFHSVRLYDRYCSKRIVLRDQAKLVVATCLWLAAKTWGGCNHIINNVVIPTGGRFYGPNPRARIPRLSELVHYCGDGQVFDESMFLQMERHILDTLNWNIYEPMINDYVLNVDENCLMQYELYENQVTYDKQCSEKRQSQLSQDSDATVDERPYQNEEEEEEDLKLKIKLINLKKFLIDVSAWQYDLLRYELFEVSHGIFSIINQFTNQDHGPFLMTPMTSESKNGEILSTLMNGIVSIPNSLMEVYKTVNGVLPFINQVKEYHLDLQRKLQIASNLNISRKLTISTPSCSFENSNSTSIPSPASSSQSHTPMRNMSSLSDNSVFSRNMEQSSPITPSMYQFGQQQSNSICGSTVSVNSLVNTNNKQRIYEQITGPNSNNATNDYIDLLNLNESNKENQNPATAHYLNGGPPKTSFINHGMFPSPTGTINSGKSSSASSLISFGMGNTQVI
T4 sequence (P20486 whole entry partner): as the sequence (P20486 whole entry partner) above
Protocol: as §1, §2, §3, §4

[5] = molecular target: T5, Clb2hpm-Cdk1 (Saccharomyces cerevisiae, UniProt P00546)
T5 construct: made in house; host or cells: S. cerevisiae strain DOM0964 (gal-CLB2hpm-TAP, sic1 deleted); Cks1 from bacteria
T5 sequence (P00546 2-298 limits assumed): as the sequence (P00546 2-298 limits assumed) above
Protocol: (§5) For the quantitative phosphorylation assays of T33-Sic1ΔC constructs and recombinant substrates, substrate concentrations were kept in the range of 0.5–2 μM (in the linear [S] versus v0 range, several-fold below the estimated KM value), and initial velocity conditions were defined as an initial substrate turnover of up to 10% of the total turnover. For the steady-state peptide kinetics of the Histone peptide PKTPKKAKKL, a similar assay composition was used as for protein substrates, and phosphocellulose paper was used for the quantification of the phosphorylated substrate.
(§6) Supplemental Experimental Procedures
(§7) Plasmid constructs and yeast strains
(§8) For tandem affinity purification (TAP) of cyclin-Cdk1 complexes, the cyclin genes were cloned into the 2 micron vector pRSAB1234 containing a GAL1 promoter and the C-terminal TAP-tag. To purify different 6His-T33-Sic1ΔC forms for kinase assays, the C-terminally truncated fragment of Sic1 (with a stop codon inserted after amino acid 215) was cloned into the NheI/BamHI site of the bacterial expression vector pET28a (Invitrogen). Mutagenesis of cyclins or substrates was performed using single-stranded pRSAB1234 or pET28a vector constructs as templates. The triple mutants in the hydrophobic patch (hpm) of Clb5 and Clb2 were described previously (Loog and Morgan, 2005), and the hpm of Clb3 (Phe-201, Leu-205 and Trp-208 mutated to alanines) was designed according to sequence homology with other B-type cyclins. In T33-Sic1ΔC constructs, the other Cdk sites bearing the consensus motif S/T-P were mutated to Ala-Ala in order to prevent any possible (pseudo)substrate competition. The other Cdk substrates were cloned as full-length forms into bacterial expression vectors pET28a or pGEX-4T-1. Cdh1 was purified using the baculovirus system and was a kind gift from Monica Rodrigo-Brenni (UCSF). […]
The […]
(§9) pRSAB1234 analogously to the cyclin-Cdk1 complexes. For C-terminal tagging of cyclin genes in their chromosomal loci, the Pringle method was applied (Longtine et al., 1998). Lists of plasmid […]
(§10) The TAP method was applied for purification of cyclin-Cdk1 complexes and Swe1 as described previously for Clb5-TAP-Cdk1 and Clb2-TAP-Cdk1 (Puig et al., 2001; Ubersax et al., 2003). […]
as §2, with “tagged” for “similar substrate specificity as the Cln2-Cdk1 version purified using a TAP-tag. N-terminally 6His-tagged”
as §3
(§11) About 1-10 nM of purified kinase complex was used, reaction aliquots were taken at two or more […]

[6] = molecular target: T6, Clb3hpm-Cdk1 (Saccharomyces cerevisiae, UniProt P00546+P24870)
T6 construct: made in house; host or cells: S. cerevisiae strain MK0168 (gal-CLB3hpm-TAP, sic1 deleted); Cks1 from bacteria
Protocol: as §5, §6, §7, §8
The […]
as §9, §10
as §2, with “tagged” for “similar substrate specificity as the Cln2-Cdk1 version purified using a TAP-tag. N-terminally 6His-tagged”
as §3, §11

[7] = molecular target: T7, Clb5hpm-Cdk1 (Saccharomyces cerevisiae, UniProt P00546)
T7 construct: made in house; host or cells: S. cerevisiae strain DOM0963 (gal-CLB5hpm-TAP, sic1 deleted); Cks1 from bacteria
T7 sequence (P00546 2-298 limits assumed): as above
Protocol: as §5, §6, §7, §8
The […]
as §9, §10
as §2, with “tagged” for “similar substrate specificity as the Cln2-Cdk1 version purified using a TAP-tag. N-terminally 6His-tagged”
as §3, §11

Molecule	kcat/KM, Clb2 [1] [relative units]	kcat/KM, Clb3 [2] [relative units]	kcat/KM, Clb5 [3] [relative units]	kcat/KM, Cln2 [4] [relative units]	kcat/KM, Clb2hpm [5] [relative units]	kcat/KM, Clb3hpm [6] [relative units]	kcat/KM, Clb5hpm [7] [relative units]
ASH1: transcription factor, purified protein tested as Cdk1 substrate	0.462	0.697	0.111	0.422	0.389	0.134	0.052
Histone H1 [reference compound]	4.900	2.237	0.605	1.394	4.287	1.957	0.427
B1	0.109	0.101	0.027	0.521	–	–	–
B2	0.836	0.223	0.032	0.042	0.111	0.017	0.008
